Data taken from PMC6085627.

Columns and labels:
Recombinant GST-A-box = assay: SPR; Biacore T200; GST-A-box (750 RU) or GST-B-box (1000 RU) amine-coupled on CM5; MD-2 injected (17-500 nM) at 30 μL/min for 60 s, 25 °C, dissociation 1 min; HBS-EP pH 7.4; steady-state affinity model; apparent KD
Recombinant GST-B-box = assay: as above
[1] = target: human TLR4 (human), O00206; assay: SPR; Biacore T200; rhTLR4 amine-coupled on CM5 (~800 RU); HMGB1 isoforms injected at 30 μL/min for 60 s, 25 °C, dissociation 1-2 min; HBS-EP pH 7.4; 1:1 binding supposed; apparent KD; details: remark: other sources report otherwise
[2] = target: human TLR4 (human), O00206; assay: SPR; Biacore T200; TLR4 amine-coupled on CM5 (800 RU); GST-A-box (310-10,000 nM), GST-B-box (1 and 5 μM), A-box or GST injected at 30 μL/min for 60 s, 25 °C, dissociation 2 min; HBS-EP pH 7.4; 1:1 binding supposed; apparent KD
[3] = target: Human TLR4/MD-2 complex (human), O00206; assay: SPR; Biacore T200; TLR4/MD-2 amine-coupled on CM5 (1100 RU); GST-A-box, GST-B-box (150-5000 nM), A-box or GST injected at 30 μL/min for 60 s, 25 °C, dissociation 1 min; HBS-EP pH 7.4; GST-A-box: association and dissociation fitted separately to a 1:1 model; GST-B-box: steady-state affinity model; apparent KD
[4] = target: Human TLR4 (rhTLR4) (human), O00206; assay: SPR; TLR4/MD-2 complex or TLR4 coated on a CM5 chip; A-box protein injected as analyte (0-5 µM on TLR4/MD-2, 0-10 µM on TLR4); Biacore T200, HBS-EP buffer pH 7.4
[5] = target: Human TLR4/MD-2 complex (human), O00206; assay: as above
Target sequence in this assay (O00206 24-631, chain 1 of 2, one chain of several): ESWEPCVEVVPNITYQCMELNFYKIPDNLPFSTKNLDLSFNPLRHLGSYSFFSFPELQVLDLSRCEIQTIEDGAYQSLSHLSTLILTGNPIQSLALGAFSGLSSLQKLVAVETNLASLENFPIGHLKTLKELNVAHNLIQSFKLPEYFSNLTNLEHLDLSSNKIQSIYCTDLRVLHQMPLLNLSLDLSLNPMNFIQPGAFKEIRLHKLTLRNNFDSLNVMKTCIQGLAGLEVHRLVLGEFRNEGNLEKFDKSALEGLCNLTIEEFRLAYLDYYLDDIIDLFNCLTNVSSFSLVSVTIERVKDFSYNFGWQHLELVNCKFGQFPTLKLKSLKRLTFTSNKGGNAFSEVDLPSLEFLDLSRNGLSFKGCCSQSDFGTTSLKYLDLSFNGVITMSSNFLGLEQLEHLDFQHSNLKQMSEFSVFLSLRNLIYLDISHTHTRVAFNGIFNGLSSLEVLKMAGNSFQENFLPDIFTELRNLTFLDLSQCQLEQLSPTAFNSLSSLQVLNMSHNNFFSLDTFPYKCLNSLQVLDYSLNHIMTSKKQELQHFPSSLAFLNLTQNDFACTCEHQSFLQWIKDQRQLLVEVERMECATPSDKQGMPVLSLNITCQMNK

Sequence of human TLR4 (human), O00206 (O00206 24-631): as the sequence (O00206 24-631, chain 1 of 2, one chain of several) above
Sequence of Human TLR4 (rhTLR4) (human), O00206 (O00206 24-631): as the sequence (O00206 24-631, chain 1 of 2, one chain of several) above

B1: human MD-2, Q9Y6Y9 19-160 (natural protein)
chain: QKQYWVCNSSDASISYTYCDKMQYPISINVNPCIELKRSKGLLHIFYIPRRDLKQLYFNLYITVNTMNLPKRKEVICRGSDDDYSFCRALKGETVNTTISFSFKGIKFSKGKYKCVVEAISGSPEEMLFCLEFVILHQPNSN
Recombinant GST-A-box
  Kd: 3250 nM

B2: human MD-2 (natural protein)
chain: B1 chain
Recombinant GST-B-box
  Kd: 1410 nM

B3: disulfide HMGB1 (High Mobility Group Box 1), P63159 1-215 (natural protein)
chain: MGKGDPKKPRGKMSSYAFFVQTCREEHKKKHPDASVNFSEFSKKCSERWKTMSAKEKGKFEDMAKADKARYEREMKTYIPPKGETKKKFKDPNAPKRPPSAFFLFCSEYRPKIKGEHPGLSIGDVAKKLGEMWNNTAADDKQPYEKKAAKLKEKYEKDIAAYRAKGKPDAAKKGVVKAEKSKKKKEEEDDEEDEEDEEEEEEEEDEDEEEDDDDE
modifications: here or on the partner: disulfide bond between C23 and C45
[1]
  Kd: 640 nM
  fold slower dissociation rate than reduced HMGB1: 2 fold
  koff: 0.128 s⁻¹

B4: DTT reduced HMGB1, P63159 1-215 (natural protein)
chain: B3 chain
modifications: here or on the partner: cysteines reduced with DTT (no C23-C45 disulfide)
[1]
  Kd: 650 nM

B5: Recombinant GST-A-box (domain or fragment)
chain: PRGKMSSYAFFVQTCREEHKKKHPDASVNFSEFSKKCSERWKTMSAKEKGKFEDMAKADKARYEREMKTYI
modifications: not checked
[2]
  Kd: 590 nM
  koff: 0.013 s⁻¹
  kon: 22000 M⁻¹ s⁻¹
[3]
  Kd: 1210 nM
  koff: 0.037 s⁻¹
  kon: 30800 M⁻¹ s⁻¹

B6: Recombinant A-box without GST tag (HMGB1 A-box domain) (domain or fragment)
chain: B5 chain
modifications: not checked
[4]
  Kd: 1030 nM
[5]
  Kd: 1550 nM
